In IntAct's records for PubMed 21187394:

B1: Protein BRASSINOSTEROID … 1 (Arabidopsis thaliana (Mouse-ear cress)), O22476 (parent)
chain: MKTFSSFFLSVTTLFFFSFFSLSFQASPSQSLYREIHQLISFKDVLPDKNLLPDWSSNKNPCTFDGVTCRDDKVTSIDLSSKPLNVGFSAVSSSLLSLTGLESLFLSNSHINGSVSGFKCSASLTSLDLSRNSLSGPVTTLTSLGSCSGLKFLNVSSNTLDFPGKVSGGLKLNSLEVLDLSANSISGANVVGWVLSDGCGELKHLAISGNKISGDVDVSRCVNLEFLDVSSNNFSTGIPFLGDCSALQHLDISGNKLSGDFSRAISTCTELKLLNISSNQFVGPIPPLPLKSLQYLSLAENKFTGEIPDFLSGACDTLTGLDLSGNHFYGAVPPFFGSCSLLESLALSSNNFSGELPMDTLLKMRGLKVLDLSFNEFSGELPESLTNLSASLLTLDLSSNNFSGPILPNLCQNPKNTLQELYLQNNGFTGKIPPTLSNCSELVSLHLSFNYLSGTIPSSLGSLSKLRDLKLWLNMLEGEIPQELMYVKTLETLILDFNDLTGEIPSGLSNCTNLNWISLSNNRLTGEIPKWIGRLENLAILKLSNNSFSGNIPAELGDCRSLIWLDLNTNLFNGTIPAAMFKQSGKIAANFIAGKRYVYIKNDGMKKECHGAGNLLEFQGIRSEQLNRLSTRNPCNITSRVYGGHTSPTFDNNGSMMFLDMSYNMLSGYIPKEIGSMPYLFILNLGHNDISGSIPDEVGDLRGLNILDLSSNKLDGRIPQAMSALTMLTEIDLSNNNLSGPIPEMGQFETFPPAKFLNNPGLCGYPLPRCDPSNADGYAHHQRSHGRRPASLAGSVAMGLLFSFVCIFGLILVGREMRKRRRKKEAELEMYAEGHGNSGDRTANNTNWKLTGVKEALSINLAAFEKPLRKLTFADLLQATNGFHNDSLIGSGGFGDVYKAILKDGSAVAIKKLIHVSGQGDREFMAEMETIGKIKHRNLVPLLGYCKVGDERLLVYEFMKYGSLEDVLHDPKKAGVKLNWSTRRKIAIGSARGLAFLHHNCSPHIIHRDMKSSNVLLDENLEARVSDFGMARLMSAMDTHLSVSTLAGTPGYVPPEYYQSFRCSTKGDVYSYGVVLLELLTGKRPTDSPDFGDNNLVGWVKQHAKLRISDVFDPELMKEDPALEIELLQHLKVAVACLDDRAWRRPTMVQVMAMFKEIQAGSGIDSQSTIRSIEDGGFSTIEMVDMSIKEVPEGKL
partner: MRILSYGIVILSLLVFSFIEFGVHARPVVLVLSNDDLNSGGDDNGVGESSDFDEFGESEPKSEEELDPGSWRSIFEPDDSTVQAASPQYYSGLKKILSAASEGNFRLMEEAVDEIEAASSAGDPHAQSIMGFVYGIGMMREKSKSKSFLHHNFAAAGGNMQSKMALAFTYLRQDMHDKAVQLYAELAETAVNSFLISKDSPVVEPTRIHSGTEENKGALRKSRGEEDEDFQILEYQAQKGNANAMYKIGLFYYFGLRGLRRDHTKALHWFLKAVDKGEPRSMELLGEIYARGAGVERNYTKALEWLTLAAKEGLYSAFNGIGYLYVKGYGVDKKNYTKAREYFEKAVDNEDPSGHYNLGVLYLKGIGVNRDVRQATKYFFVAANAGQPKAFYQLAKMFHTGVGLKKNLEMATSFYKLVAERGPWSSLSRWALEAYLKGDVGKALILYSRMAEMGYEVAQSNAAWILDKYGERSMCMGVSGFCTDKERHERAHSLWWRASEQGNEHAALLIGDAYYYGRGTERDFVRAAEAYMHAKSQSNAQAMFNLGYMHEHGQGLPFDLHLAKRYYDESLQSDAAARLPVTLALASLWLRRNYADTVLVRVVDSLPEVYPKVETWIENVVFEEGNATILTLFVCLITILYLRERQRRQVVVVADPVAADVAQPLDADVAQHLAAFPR

Variants of: B1
Conditions: with hrd3a_arath HRD3A
In the case of S662F, the “effect of a mutation on the interaction” value is reported as “increasing interaction strength”.
For C69Y, the “effect of a mutation on the interaction” value was “increasing interaction strength”.
